Data taken from the supplement of paper PMC9170038.

System: MS2 coat protein
Assay: apparent KD of MS2 coat protein; higher = weaker reporter binding
Details: Eterna round: R107
Method: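 RNA-MaP round R107: designed RNA switches with theophylline, tryptophan, arginine or FMN aptamers are transcribed on-chip within common flanks. They are titrated with SNAP-549-labelled MS2 coat protein in RNA-MaP buffer (100 mM Tris pH 7.5, 80 mM KCl, 4 mM MgCl2), without ligand or with the indicated ligand. Median apparent KD per design.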

[1] = input ligand: theophylline 20 uM
[2] = input ligand: tryptophan 2.4 mM
[3] = input ligand: theophylline 2 mM

| Sequence | apparent KD of MS2 coat protein (input ligand: arginine 13.2 mM) | apparent KD of MS2 coat protein [1] | apparent KD of MS2 coat protein [2] | apparent KD of MS2 coat protein [3] | apparent KD of MS2 coat protein (input ligand: none) |
| --- | --- | --- | --- | --- | --- |
| ACCAUGUAAUCAGAUACCAGACAUCUUUUAAAUCAUAUUACAUGAGGAUCACCCAUGUUGGUCCCUUGGCAGCUGAAAUAUUUCA [JR_Nu_SSTheophyB_Sub025] | 144 nM | 351 nM | 529 nM |  |  |
| ACCGAAAGCUCACAUGAGGAUCACCCAUGUCGAGGACCGGUACGGCCGCCACUCGGCAAAUAUAAGGGUGGACGCGUCUCUGCGU [Soramasoso] | 35.4 nM | 58.8 nM |  | 62.1 nM |  |
| ACCGAGGCAAUGGAUACCAGUGCGCCACAAUCGUGCUUCAACAUGAGGAUCACCCAUGUGCACCCUUGGCAGCCAACGGGCUCAU [theeternabot_exclusion_MS2_Theo_B_19] | 15 nM | 25.3 nM | 19.9 nM |  |  |
| ACCGCAUCCGUAUAGGAUGCGGCCCAUGAAGGAGCGUGGGAAACCACAGGUAGGUCGCAUGGAUUACAUGAGGAUCACCCAUGUG [Skyfall] | 104 nM | 378 nM | 408 nM | 706 nM | 400 nM |
| ACCUCACUCUCUGAUACCAGCUAAUAACAUGAGGAUCACCCAUGUCAGACUUGUAUUGAUAGCCCUUGGCAGCAGAGGUAACUGC [Theo B Ex t2] | 9.42 nM | 11.9 nM | 10.6 nM |  |  |
| ACCUCAUGUAGAAGGAGCGUCAGAAGCUACAGACAUGAGGAUCACCCAUGUUAGUUGAUCUGACAGGUAGGUCGCUACAGCAGGA [#23 Same State - Arginine B] | 24.1 nM | 43.9 nM | 31.8 nM | 35.6 nM | 32.3 nM |
| ACCUGUACGAAAAGUGCAGGACACGGAAUACGAGGACCGGUACGGCCGCCACUCGGAAAACCUGAGGAUCACCCUGGUAACCGUG [TrypAS 11 #AlternativeMS2 #Zipper #StaticStem] | 21.6 nM | 22.3 nM | 22.1 nM | 25 nM | 16.3 nM |
| ACCUGUACGAAAAGUGCAGGACAUGGAAAUCGAGGACCGGUACGGCCGCCACUCGUUGAAAACAAGUGGAUCACCCUUGUCCAUG [TrypAS 3 #AlternativeMS2 #Zipper #StaticStem] | 35.3 nM | 764 nM | 1070 nM | 872 nM | 417 nM |
| ACGACGCAUAGUGAUACCAGUAGAACAUGAGGAUCACCCAUGUCAGAUAUGUUCUAAUACUGCCCUUGGCAGCACUAUGCGUCAG [SSTheo B #4] | 144 nM | 344 nM | 299 nM |  |  |
| ACGAUAGGACAUGAGGAUCACCCAUGUGAUACCAGCCUGGAAACAGGCCCUUGGCAGCACAAAUACUCCAGAAACCUAUCGAAAA [MAT - Exclusion Theophlline A - Mod of Eli - D5] | 103 nM | 263 nM | 337 nM |  |  |
| ACGAUAGGACCUGAGGAUCACCCUGGUGAUACCAGCCUGGAAACAGGCCCUUGGCAGCACAAAUACUCCAAUAACCUAUCGAAUA [TheoAX 13 #MicroSwitchBubble #AlternativeMS2] | 245 nM | 698 nM | 1070 nM | 1100 nM | 611 nM |
| ACGUAAAGCAGAAGGAGCGUCUUCAAUUUACAUGAGGAUCACCCAUGUUUUGUGAUCAUAUGACAGGUAGGUCGCUGAAGUACGA [JR_SSArginiB_Sub002] | 85.9 nM | 152 nM | 123 nM | 141 nM |  |
| ACGUAAUGCAGAAGGAGCGUCAACCUCUUACAUGAGGAUCACCCAUGUUACAUGGUUGUAUGACAGGUAGGUCGCUGAAGUACGA [JR_ExcArginiB_Sub001] | 31.9 nM | 50.5 nM | 36.6 nM | 50.4 nM | 34.7 nM |
| ACGUCUCGAAAACUCGUAGUAACUAUAGAUACCAGUAGCGAGAGUUACCCUUGGCAGCUACAUGAGGAUCACCCAUGUACGAGGA [XTheo A #28] | 16.4 nM | 20.9 nM | 15.1 nM |  |  |
| ACUCGAGGUGGAAGGAGCGGGAGACAUGAGCAUCACAUGAGGAUCACCCAUGUAGGAUCAUCCCAGGUAGGUCGCCAUGUCGAAA [avtamullin] | 105 nM | 147 nM | 165 nM | 276 nM | 217 nM |
| ACUGUCUUUGAUGAUAUGUAUGGGUCAUUGCGAGGACCGGUACGGCCGCCACUCGGUCCGCCACAUGAGGAUCACCCAUGUCUAU [theeternabot_exclusion_MS2_Trp_A_37] | 56.8 nM | 94.6 nM |  | 195 nM |  |
| AGAACCCAAGAGGAUACCAGAACGACAAUCAAAUCUUUUUACAUGAGGAUCACCCAUGUUUUCCCUUGGCAGCCUCAUGCACGAC [theeternabot_exclusion_MS2_Theo_B_43] | 47.1 nM | 108 nM | 59.6 nM |  |  |
| AGACAUGAGGAUCACCCAUGUAGUACGGAUACCAGAUCCAGAUGCGUCCCUUGGCAGCUGUGGUACAGCGUUACAUCGCUCGUAG [Exclusion - Theophylline A (Freestyle 23)] | 16 nM | 29.9 nM | 18.6 nM |  |  |
| AGAGCAUUGACGGCCGCCACUCAUGUCACAUGAGGAUCACCCAUGUGAUGGGUGAUCGCCCGGUUGAGGACCGGGUCAAUGCUCA [Omei Tryp SS B v2] | 42.9 nM | 123 nM |  | 121 nM |  |
